Source: article PMC4439613, “TRIP13 is a protein-remodeling AAA+ ATPase that catalyzes MAD2 conformation switching” (eLife, 2015)

T1: His6-tagged M. musculus p31(comet) (M. musculus, UniProt Q9DCX1 1-276)
T1 construct: p31(comet), M. musculus, full length; The same construct as m12 with the TEV-cleavable His6 tag left on for the Ni2+ pull-down; also called His6-tagged p31(comet); source: E. coli Rosetta 2 (DE3) pLysS, purified; not shown: His6, N-terminal, kept
T1 sequence (looked up): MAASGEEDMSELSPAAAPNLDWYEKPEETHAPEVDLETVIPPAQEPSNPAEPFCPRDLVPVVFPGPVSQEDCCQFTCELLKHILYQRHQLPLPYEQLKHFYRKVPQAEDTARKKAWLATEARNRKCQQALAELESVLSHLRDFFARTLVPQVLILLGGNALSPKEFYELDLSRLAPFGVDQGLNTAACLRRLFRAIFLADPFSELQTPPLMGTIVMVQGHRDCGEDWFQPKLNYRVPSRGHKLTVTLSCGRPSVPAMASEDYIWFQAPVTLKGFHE

T2: M. musculus p31(comet) (wild type, tag cleaved) (M. musculus, UniProt Q9DCX1 1-276)
T2 construct: p31(comet), M. musculus, full length; also called wild-type p31(comet); source: E. coli Rosetta 2 (DE3) pLysS, purified (Ni-NTA, Hitrap Q ion exchange, Superdex 200 SEC); not shown: His6, N-terminal, cleaved
T2 sequence (looked up): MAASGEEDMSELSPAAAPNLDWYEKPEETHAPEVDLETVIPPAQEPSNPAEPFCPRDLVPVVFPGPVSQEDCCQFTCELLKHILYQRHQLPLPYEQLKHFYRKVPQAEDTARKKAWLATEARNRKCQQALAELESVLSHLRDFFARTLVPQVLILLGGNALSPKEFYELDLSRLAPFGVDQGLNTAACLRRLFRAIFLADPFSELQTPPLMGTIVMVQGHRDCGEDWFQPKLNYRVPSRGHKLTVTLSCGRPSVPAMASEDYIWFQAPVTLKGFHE


Columns and labels:
[1] = molecular target: C. elegans MAD-2 (MDF-2) (C. elegans); experiment: SEC-MALS; single purified proteins on Superdex 200 10/300 GL; PCH-2 and TRIP13 with and without added nucleotides
[2] = molecular target: the molecule itself; experiment: as above
[3] = substrate: Nc1ncnc2c1ncn2[C@@H]1O[C@H](COP(=O)(O)OP(=O)(O)OP(=O)(O)O)[C@@H](O)[C@H]1O; experiment: enzyme-coupled ATPase assay (pyruvate kinase / lactate dehydrogenase, NADH); format: biochemical, Mus musculus; conditions: basal, pH 8.5, 27 °C, 10 mM MgCl2, 200 mM NaCl, kcat per hexamer
[4] = molecular target: T1, His6-tagged M. musculus p31(comet); experiment: pull-down; Ni2+ pull-down: 300 pmol His6-tagged p31(comet) with 450 pmol untagged MAD2 in 50 μl (20 mM Tris-HCl pH 7.5 or 8.5, 200 mM NaCl, 20 mM imidazole, 0.1% NP-40), 20°C, Ni-NTA magnetic beads, Coomassie; conditions: both partners purified
[5] = molecular target: T2, M. musculus p31(comet) (wild type, tag …); experiment: SEC; as a8 but mixtures of two of the three proteins (one left out); conditions: both partners purified
[6] = substrate: Nc1ncnc2c1ncn2[C@@H]1O[C@H](COP(=O)(O)OP(=O)(O)OP(=O)(O)O)[C@@H](O)[C@H]1O; experiment: enzyme-coupled ATPase assay (pyruvate kinase / lactate dehydrogenase, NADH); format: biochemical, Caenorhabditis elegans; conditions: basal, pH 8.5, 27 °C, 10 mM MgCl2, 200 mM NaCl, kcat per hexamer
[7] = molecular target: the molecule itself; experiment: SEC; PCH-2 pore loop mutants compared with wild type on a size-exclusion column
[8] = substrate: Nc1ncnc2c1ncn2[C@@H]1O[C@H](COP(=O)(O)OP(=O)(O)OP(=O)(O)O)[C@@H](O)[C@H]1O; experiment: enzyme-coupled ATPase assay (pyruvate kinase / lactate dehydrogenase, NADH); format: biochemical, Caenorhabditis elegans; conditions: basal, pH 8.5, 27 °C, 10 mM MgCl2, 200 mM NaCl, kcat per hexamer; remark: listed apart in the source
Excerpt: enzyme-coupled ATPase assay (pyruvate kinase / lactate dehydrogenase, NADH) on PCH-2 | the kcat of PCH-2^W221A around threefold higher than that of the wild-type enzyme

Molecule	stoichiometry N [2]	Km [6] [µM]	kcat [6]	stoichiometry N [7]	other results
C. elegans MAD-2 (MDF-2) (natural protein)					stoichiometry N [1]: 2
Mus musculus TRIP13 (enzyme, M. musculus, UniProt Q3UA06 1-432, looked up, TRIP13, M. musculus, full length; Mixture of oligomeric states from monomer to hexamer by SEC-MALS; also called wild-type TRIP13; source: E. coli Rosetta 2 (DE3) pLysS, purified (Ni-NTA, Hitrap Q ion exchange, Superdex 200 SEC); not shown: His6, N-terminal, cleaved) MDEAVGDLKQALPCVAESPAVHVEVLQRSGSTAKKEDIKSSVYRLLNRHNIVFGDYVWTEFDDPFLSRNVQSVSIVDTELKAKDPQPIDLSACTIALHIFQLNEEGPSSENLDEETENIIAASHWVLPAAEFHGLWDSLVYDVEVKSHLLDYVMTTVLFSDKNVDSNLITWNRVVLLHGPPGTGKTSLCKALAQKLTIRLSSRYRYGQLIEINSHSLFSKWFSESGKLVTKMFQKIQDLIDDKEALVFVLIDEVESLTAARNACRAGAEPSDAIRVVNAVLTQIDQIKRHSNVVILTTSNITEKIDVAFVDRADIKQYIGPPSAAAIFKIYLSCLEELMKCQIIYPRQQLLTLRELEMIGFIENNVSKLSLLLSEISRKSEGLSGRVLRKLPFLAHALYIQAPSVTIEGFLQALSLAVDKQFEEKKKLSAYV	≤ 6				Km [3]: 13.9 ± 0.6 µM; kcat [3]: 8.7 +/- 0.1 ATP min^-1
M. musculus TRIP13^E253Q (enzyme, UniProt Q3UA06 1-432, looked up, TRIP13, M. musculus, full length, Walker B mutation E253Q; also called Walker B mutant; ATP hydrolysis-defective TRIP13; source: E. coli Rosetta 2 (DE3) pLysS, purified (Ni-NTA, Hitrap Q ion exchange, Superdex 200 SEC); not shown: His6, N-terminal, cleaved) MDEAVGDLKQALPCVAESPAVHVEVLQRSGSTAKKEDIKSSVYRLLNRHNIVFGDYVWTEFDDPFLSRNVQSVSIVDTELKAKDPQPIDLSACTIALHIFQLNEEGPSSENLDEETENIIAASHWVLPAAEFHGLWDSLVYDVEVKSHLLDYVMTTVLFSDKNVDSNLITWNRVVLLHGPPGTGKTSLCKALAQKLTIRLSSRYRYGQLIEINSHSLFSKWFSESGKLVTKMFQKIQDLIDDKEALVFVLIDQVESLTAARNACRAGAEPSDAIRVVNAVLTQIDQIKRHSNVVILTTSNITEKIDVAFVDRADIKQYIGPPSAAAIFKIYLSCLEELMKCQIIYPRQQLLTLRELEMIGFIENNVSKLSLLLSEISRKSEGLSGRVLRKLPFLAHALYIQAPSVTIEGFLQALSLAVDKQFEEKKKLSAYV	6				
TRIP13 (Mus musculus; W221A) (protein, full-length, N-terminal His6 tag removed with TEV protease, E. coli Rosetta 2 (DE3) pLysS) MDEAVGDLKQALPCVAESPAVHVEVLQRSGSTAKKEDIKSSVYRLLNRHNIVFGDYVWTEFDDPFLSRNVQSVSIVDTELKAKDPQPIDLSACTIALHIFQLNEEGPSSENLDEETENIIAASHWVLPAAEFHGLWDSLVYDVEVKSHLLDYVMTTVLFSDKNVDSNLITWNRVVLLHGPPGTGKTSLCKALAQKLTIRLSSRYRYGQLIEINSHSLFSKAFSESGKLVTKMFQKIQDLIDDKEALVFVLIDEVESLTAARNACRAGAEPSDAIRVVNAVLTQIDQIKRHSNVVILTTSNITEKIDVAFVDRADIKQYIGPPSAAAIFKIYLSCLEELMKCQIIYPRQQLLTLRELEMIGFIENNVSKLSLLLSEISRKSEGLSGRVLRKLPFLAHALYIQAPSVTIEGFLQALSLAVDKQFEEKKKLSAYV					Km [3]: 24.4 ± 1.3 µM; kcat [3]: 18.7 +/- 0.2 ATP min^-1
M. musculus MAD2 (wild type) (natural protein, UniProt Q9Z1B5 1-205, looked up, MAD2, M. musculus, full length; Predominantly dimeric by SEC-MALS; also called WT MAD2; wild-type MAD2 dimer; source: E. coli Rosetta 2 (DE3) pLysS, purified (Ni-NTA, Hitrap Q ion exchange, Superdex 200 SEC); not shown: His6, N-terminal, cleaved) MAQQLAREQGITLRGSAEIVAEFFSFGINSILYQRGIYPSETFTRVQKYGLTLLTTTDPELIKYLNNVVEQLKEWLYKCSVQKLVVVISNIESGEVLERWQFDIECDKTAKEEGVRREKSQKAIQDEIRSVIRQITATVTFLPLLEVSCSFDLLIYTDKDLVVPEKWEESGPQFITNCEEVRLRSFTTTIHKVNSMVAYKTPVND	2				binding result [4]: binds
M. musculus C-MAD2^R133A (closed conformer of the monomeric MAD2 R133A variant) (natural protein, UniProt Q9Z1B5 1-205, looked up, MAD2, M. musculus, full length, dimerization-defective mutation R133A; the closed conformer, purified apart from the open one by anion exchange; also called closed MAD2; source: E. coli Rosetta 2 (DE3) pLysS, purified; closed conformer peak separated by anion exchange; not shown: His6, N-terminal, cleaved) MAQQLAREQGITLRGSAEIVAEFFSFGINSILYQRGIYPSETFTRVQKYGLTLLTTTDPELIKYLNNVVEQLKEWLYKCSVQKLVVVISNIESGEVLERWQFDIECDKTAKEEGVRREKSQKAIQDEIRSVIAQITATVTFLPLLEVSCSFDLLIYTDKDLVVPEKWEESGPQFITNCEEVRLRSFTTTIHKVNSMVAYKTPVND					binding result [5]: binds
Caenorhabditis elegans PCH-2 (enzyme, C. elegans, UniProt Q09535 1-424, looked up, PCH-2 (TRIP13 ortholog), C. elegans, full length, 424 residues; Selenomethionine-derivatised protein was used for phasing only; two subunits of the hexamer carry ADP in the crystal; also called C. elegans TRIP13 ortholog; wild-type PCH-2; source: E. coli Rosetta 2 (DE3) pLysS, purified (Ni-NTA, Hitrap Q ion exchange, Superdex 200 SEC); not shown: His6, N-terminal, cleaved) MHEPMKTLKNIHAEIRICQKFPKSTVQKRFSEFEELIKAASKNARNWKPISSVELFQGDSSLNELFEKLVIGTCELRDGELFENVNDLTINPSNIHVYKLHKDGPLSQNIGDDDGDESIIGSQLWQLPCVEFDSIWENLIYDSNLKNEVMSYVAALARLSEKHVNTKIINVNRLILLTGPPGTGKTSLCKGLAQHLSIRMNDKYSKSVMLEINSHSLFSKWFSESGKLVQKMFDQIDELAEDEKCMVFVLIDEVESLGMCRESSSSRSEPSDAIRAVNALLTQIDRIRRRDNVLILCTSNLESTLDKALVDRADIVKNVGQPSDFARYSMLKSSIMELARIGVVIDNEVHTDYWPQDICDTKAPRNEFTEILFKIAQEARGLSGRAISMLPTLVYSKSPEETITLPNCMNLFLEAVKERLSRNN	6	9.5 ± 1.3	56.0 +/- 1.5 ATP min^-1		
C. elegans PCH-2^W221A (enzyme, UniProt Q09535 1-424, looked up, PCH-2, C. elegans, full length, pore loop mutation W221A; also called pore loop mutant W221A; source: E. coli Rosetta 2 (DE3) pLysS, purified (Ni-NTA, Hitrap Q ion exchange, Superdex 200 SEC); not shown: His6, N-terminal, cleaved) MHEPMKTLKNIHAEIRICQKFPKSTVQKRFSEFEELIKAASKNARNWKPISSVELFQGDSSLNELFEKLVIGTCELRDGELFENVNDLTINPSNIHVYKLHKDGPLSQNIGDDDGDESIIGSQLWQLPCVEFDSIWENLIYDSNLKNEVMSYVAALARLSEKHVNTKIINVNRLILLTGPPGTGKTSLCKGLAQHLSIRMNDKYSKSVMLEINSHSLFSKAFSESGKLVQKMFDQIDELAEDEKCMVFVLIDEVESLGMCRESSSSRSEPSDAIRAVNALLTQIDRIRRRDNVLILCTSNLESTLDKALVDRADIVKNVGQPSDFARYSMLKSSIMELARIGVVIDNEVHTDYWPQDICDTKAPRNEFTEILFKIAQEARGLSGRAISMLPTLVYSKSPEETITLPNCMNLFLEAVKERLSRNN				6	Km [8]: 28.3 ± 1.9 µM; kcat [8]: 168.7 +/- 2.3 ATP min^-1
C. elegans PCH-2^F222A (enzyme, UniProt Q09535 1-424, looked up, PCH-2, C. elegans, full length, pore loop mutation F222A; also called pore loop mutant F222A; source: E. coli Rosetta 2 (DE3) pLysS, purified (Ni-NTA, Hitrap Q ion exchange, Superdex 200 SEC); not shown: His6, N-terminal, cleaved) MHEPMKTLKNIHAEIRICQKFPKSTVQKRFSEFEELIKAASKNARNWKPISSVELFQGDSSLNELFEKLVIGTCELRDGELFENVNDLTINPSNIHVYKLHKDGPLSQNIGDDDGDESIIGSQLWQLPCVEFDSIWENLIYDSNLKNEVMSYVAALARLSEKHVNTKIINVNRLILLTGPPGTGKTSLCKGLAQHLSIRMNDKYSKSVMLEINSHSLFSKWASESGKLVQKMFDQIDELAEDEKCMVFVLIDEVESLGMCRESSSSRSEPSDAIRAVNALLTQIDRIRRRDNVLILCTSNLESTLDKALVDRADIVKNVGQPSDFARYSMLKSSIMELARIGVVIDNEVHTDYWPQDICDTKAPRNEFTEILFKIAQEARGLSGRAISMLPTLVYSKSPEETITLPNCMNLFLEAVKERLSRNN		19.3 ± 0.8	11.7 +/- 0.1 ATP min^-1	6	
C. elegans PCH-2 'pore loop AG' mutant (enzyme, UniProt Q09535 1-424, looked up, also called PCH-2^AG; source: E. coli Rosetta 2 (DE3) pLysS, purified (Ni-NTA, Hitrap Q ion exchange, Superdex 200 SEC); not shown: His6, N-terminal, cleaved) MHEPMKTLKNIHAEIRICQKFPKSTVQKRFSEFEELIKAASKNARNWKPISSVELFQGDSSLNELFEKLVIGTCELRDGELFENVNDLTINPSNIHVYKLHKDGPLSQNIGDDDGDESIIGSQLWQLPCVEFDSIWENLIYDSNLKNEVMSYVAALARLSEKHVNTKIINVNRLILLTGPPGTGKTSLCKGLAQHLSIRMNDKYSKSVMLEINSHSLAGAAGAAAGALVQKMFDQIDELAEDEKCMVFVLIDEVESLGMCRESSSSRSEPSDAIRAVNALLTQIDRIRRRDNVLILCTSNLESTLDKALVDRADIVKNVGQPSDFARYSMLKSSIMELARIGVVIDNEVHTDYWPQDICDTKAPRNEFTEILFKIAQEARGLSGRAISMLPTLVYSKSPEETITLPNCMNLFLEAVKERLSRNN		20.2 ± 1.6	85.4 +/- 1.2 ATP min^-1	6	
